Experimental data taken from the DeepSol protein solubility set.

Assay: soluble on expression in E. coli; label from the status in PepcDB or PDB records

Sequence	soluble on expression in E. coli
MAAPILFWHRRDLRLSDNIGLAAARAQSAQLIGLFCLDPQILQSADMAPARVAYLQGCLQELQQRYQQAGSRLLLLQGDPQHLIPQLAQQLQAEAVYWNQDIEPYGRDRDGQVAAALKTAGIRAVQLWDQLLHSPDQILSGSGNPYSVYGPFWKNWQAQPKPTPVATPTELVDLSPEQLTAIAPLLLSELPTLKQLGFDWDGGFPVEPGETAAIARLQEFCDRAIADYDPQRNFPAEAGTSGLSPALKFGAIGIRQAWQAASAAHALSRSDEARNSIRVWQQELAWREFYQHALYHFPSLADGPYRSLWQQFPWENREALFTAWTQAQTGYPIVDAAMRQLTETGWMHNRCRMIVASFLTKDLIIDWRRGEQFFMQHLVDGDLAANNGGWQWSASSGMDPKPLRIFNPASQAKKFDATATYIKRWLPELRHVHPKDLISGEITPIERRGYPAPIVNHNLRQKQFKALYNQLKAAIAEPEAEPDS	soluble
MSSYDVVIIGGGPAGLFAAYELAGLAKDNVSNYKILLVDKGARASKRTCPLLSPKEKCTFCDPCHIMYGFGGAGTFSSGIINLRPDIGGELHEITRSWDKAQELINYVDDIFVKFGAPKDRVFEPNMEKVREIQRRAAKVGAEFVPIRQRHMGTDKTPLIIENIVNYVEKRGIKIGELTEVIDIEKKGNKFFLKTSRGEIESRIVLVAPGRAGAKWFYEQSKKLGVDTIPGPLDIGVRVETESFVFDELTEAVWDPKVILYSKRYDDKVRTFCVNPRGYIMKEVYDDGTIGVNGETYVDKKSNNTNFAFLTTIKLSDPLEDTIEYGKSIARLMTRLGGGKPILQRLIDFQKGRRSTWERINRSTVKPTLRDVTPGDISMGLPYRVVDNLIDGLERLDSIAPGIFSSNTLLYAPEIKYYSVRAVVDNNMETVVDNLFAAGDGTGLSRGINVAAATGILAARGIAIKLGLDLEHHHHHH	not soluble
MGSDKIHHHHHHMNTPAPRKRREMKIKTATVTGVRQISPDLIRFSFDCPEIVGADLGFTDHYIKILFVPAGADYSWPFDMAEIAETQPRELQPVRRTYTFRTVDTVAGTFDIDFVAHGTDGLAGPWAQQAQVGDVIAFGGPGGAWKPETTYEHYVLAGDEAAAPAIFAALEHLPAGTTAKAFIEISSNEARFNAPASDNIEVVWVPRDGATHGTLLIDALRQDGYPTKKTSWFIHGVAEMVKETRKFLFVEGNVDKADASISGYWRLGMTEDQWQASKREFNEQNEAEELALSKA	not soluble
MGSDKIHHHHHHGKEEEGPIPTDRQVPIGVMEASLSTRVSTRGVINTDIYKLGIFRTNANGYPPQYDAPYSYDGAAGWTATTEILVDHRSASLYAYYPYQSVSFADNTTKAILVAQIYDAAKDMCYGSATSADGSGMINNDHKGVRFIDMKHAYARLKLTFVRGTNVMSGRKCKIENIVLKNNSTNFYLQRQVDITTGTITEGTPAAEGYVHNPNVEIASGNQVYEYLLPPQSLTDNKLTISVTVDGEVRTVTVTAFGGTLNAGGYYHVTLTINDVQIVPSAGVTDNGYTSGDDPKNPIQNNTPSVV	not soluble
MSLTDASFPALPPPLVSLGDLAWDVLAKPDTLLLPGGDTTGRLELSGGGSAANLAVWAARLGAPTTFVGKIGQDRFGELATAELRAEGVRAEVLASAAHPTGVILALIDRRGQRAMLTGQGADWELLPEELPRDVLSSAGHLHLTAWSLFRDPPRAAALEAARIAKAGGATLSLDPGSFQMIQQLGREAFLNIVDALPFDVMFPNDDEARAMSGERDNEAALTWLRARYPRALIALKMDEDGALIEGPQTARVQVPATRDPLVDATGAGDAFGGAFLSQWLRHHDAERAARVAVQVGGWVVSRFGARPPADPDLTRRLASVGADLLTPDPAAAPDPSQDSPEVNEGHHHHHH	soluble
MGSDKIHHHHHHMYFELKENRPHGTPENPFSQYHISDVKRAFQIPVHWHDELEIIYVKQGKLHVTISGENYIGSPKDAFVVSPGSLHLMGSPTGDADYYTFLFPLEYISFQTDDLMEKSILSPLKRGRLMISPQINDTAADICERLIEINEQISGKNAEKTDAANIEAQFETKITLIKFIRKMWRNGLILENGTNGTNTTEKEMITYIRQNYTREISLKEFGAQFHLSEKYISRYFKEHFHITLSQYVNHLRLEHARQLLEESTASVTEVAMCSGYQNVSYFIRSFKKMYGVSPLKYRNFQTLP	not soluble
MKSTMGIILTGGKNDRLKELAEMRSSTAVPIGGKYRVIDFVLSNMVNSGIKNIGVLTQYSFRSLMDHLGSGKEWDLDRRNEGLFIFPPYLAGEHSGWYQGSADAMYHNITFLKRSYEEYVLVAQGNCVYKMLFDDMLDYHIKKNADITIAYRDMSDFPREELSFMGVMTMDENRRVVDFKEKHKNPESTICSMGIYILKRELLIALLEECNSHGKYDFVKDVIINKLPTLNIYGYKFEGYWRNLNSINAYYRINMEMLNPEIRYQLFEQHGKVYTKVKDEPPAKYNEEAEVRNSIIADGCIIEGTVINSVLFRGVTIKRNAVVKDCIIMQDSVIEEDVDIESLIIDKNVYLSKGIRLKGMVNFPITIGKNAVI	not soluble
MKKPNHSGSGQIRIIGGQWRGRKLPVPDSPGLRPTTDRVRETLFNWLAPVIVDAQCLDCFAGSGALGLEALSRYAAGATLIEMDRAVSQQLIKNLATLKAGNARVVNSNAMSFLAQKGTPHNIVFVDPPFRRGLLEETINLLEDNGWLADEALIYVESEVENGLPTVPANWSLHREKVAGQVAYRLYQREAQGESDAD	soluble
MGSDKIHHHHHHMTTESIAVLVIDDDPAILQNIVCYLEDSDFICFGAADGAAGIETFERERPDAVIVDLNMPGMNGRDVIARINAQSPTTPVIVVSGTGVIDEAVESMRVGAWDFLSKPVRRMEELENAVRAGLRRARTMRESNEYKETLERMVKRRTRELQLANDRTEAILLATVQSLSTVINLKDAYTGTHQQRVALIAPAIAEELGMEQRAVEAVRLAALLHDVGKMGLPSEFLTKPSRLDANEMQFIRQHPQLGYDILKDIPFELPIPEMVLQHHERLDGSGYPRGLAGDDILPEARILAVADTVEAICSHRPWRPAHPFSHALHELTAGKNTLYCPDAVNSCIDLITRGDPRLTTFTATIKGLPS	not soluble
IREAIARNPQEIFQYVRLSQVKRDDKVLGYRVSPGKDPVLFESIGLQDGDMAVALNGLDLTDPNVMNTLFQSMNEMTEMSLTVERDGQQHDVYIQF	not soluble
MGSDKIHHHHHHMIFVGCSGWSYEEWNGVFYPKSKINKLKFYSTMFNTVEVNSTFYREINNDIINRWIETVRGKNFIFSIKVPQNITHKAILEKDSNSKSLYETFIDKTVRPIRNARMLGAVLVQLPPSFNSNLQTELLDTICCENEYRTAVEVRNKDLYSNEELRKELEKRGIAIVDVDSTEHPLSNLNSGLKWSYVRLHGRAQLGWKSQNPYDYRYSEQEISDLSSKIMAKNYDEIFVYFNNHPRGSAPINALKMASCLGISNNWFF	not soluble
MTKDQRRSLTKKALLDALVICLKDQDFNEITTIRLVQTAGISRSSFYTHYKDKFEMIDSYQKELFHKLEYIFDKYEGKKEGAFLEIFEILTREKLLSALLSTNGAKEIQDFLINKLQRMIAKDFIDPTAEKRALKGFEKDYASIYLAHAIFGACQAWIKNGKKESPQEMTDFLLRFIPQ	not soluble
MSPAPELQIPTVTRQSDGTKIHEISGHKFKAVGLAQPTFCSFCSKFIYGVGKQGYKCLGCETVVHKRCHALITARCTFGPSSRAPVPAETTNLKTRRSRSASEEPPSNTHHFNKHFFTRPTFCDHCGSMLYGLTKQGVQCTDCHANVHFRCQEKVLRNCGIQCQ	not soluble
MAHHHHHHMNAVDAEYVEHHGVDNLIIPISVSEPKETKRGDYAYCVDVVVHTLLIKKCSRGHRLLEHLTEKLVTLSIEWIRSECGVQLLPRSCRIAGNPLYFDDTVDTPKSIASIIENAAELLQRKSNSSNSRKDEQDTIPDALNLRKAQVPESKQPLIREVISTPAIKKGFLVDGNARLYGPDGSSEGSSKAPDPLAHIPESLRERCRIIDTRNMEGLTASPAKTMKSVDKTANTHTSGTFVAPTSEPQGKDEANWARFSIERTGEKVIVRFLAPDSVSSLHDIDLSATKDTLEINGSVTQLPVPIVTDDVRAKFVKATRILVVTCLIDVS	not soluble
MKYQIVTSGFGGQGAVFIVKLLSLCAGIKGEKYLGTENHGMSQRGGSVSCFIKVGDFYTPVIEENQADMIIALEQNEGLRTLQYLKKGGKLIVNADDSLPRLEGCEAIKVDAFSLAKEGRFPAQALNAFMVGVASMQSGFPFDEETLKKGLEMINPKVAESNIQVFELGRACAPRS	not soluble
MGSDKIHHHHHHEQDNSVSEKQVDVVYNDPRDPFEGFNRAMWDLNYNVLDRYIYRPVAHTYKDYVPSPVKSGLHNFVRNLEEPNALVNNTLQGKFGWAANAGGRFVVNSTIGLLGVVDVADMMGMHRKQDDFNEVLGYYGVPNGPYFMAPFFGPYVTRELASDWVDGLYFPLSELTMWQSVVKWGIKSLHVRTEAIDQERLLDNALDPYTFVKDAYLQHMDYKVYDGNVPSNQEDDELLDEYMQELE	not soluble
EAQTETCTVAPRERQNCGFPGVTPSQCANKGCCFDDTVRGVPWCFYPNTIDVPPEEESEF	soluble
MSFRIEEKIVLTASDMARLQADLQARGMVPLYPARLIRSVYFDTSGLQMFSDSEEGVLPRKKVRLRRYPEQADAGAVLETKISSVEGRFKTALPVAPETERRLLRQGHFDRDYGTLQAMVAVSYRRAYYSLDGLRITFDRDIAYARPDGQTARREAWTVCELKAPAEAPLDALHHILPVPRRRFSKFCNGVSAVIARALEHHHHHH	not soluble
MRSMNTHAVLQFLSGNGIAILQFFHQLILQGKTQDDLTRDYALDRAWVGSVMKLAKELFDPRPSPSRDECISVAKELGLGIEVLKAINPALGRLNKKASMTKDDLRLRLYREARGMTPAEAKAHANTRVVALNDACGATPRKPAVRISKSTDAAGQRHIHASLDDATASAVAEKLHAGARWLTKKTPSLSYSQAMAEIFAIAILDSPALGGRKRREGLILLPADGYTHRGNGMLATTDGSLIPAHKLAEHLLEEYGYAMLYALNDEGVPEPVDLYRTKRYANDKQRLMITADQLTCSHPDCHRLANNSHIHHCTAWERGGETNVKNLVAACATHNRRNDDDPERHKNGYFRRMPHSGCAGFQPADPSLPPRRTRVPFAAYSARVWACDHFGVTV	not soluble
MGSDKIHHHHHHMIRFENISKQNSHRILFLDSSAALNRGEKIGLVGPNGAGKTTLFRMITGEEVPDAGQVSIEKQVSIGYFNQDVGEMSGRSAVAEVMDGAGPVSSVAAEMAELEAAMCDPDRDDMDAVVERYGEVQARFEELGGYELEGRAREVLAGLSFSQEMMDGDVGALSGGWKMRVALGRILLMRPDAMLLDEPSNHLDIESLIWLEEFLKGYDGALLMTSHDREFLNRIVTKIIEIDGGSLNTYSGDYAFFERQRAQNEKQQQAQFERQQAMLAKEIKFIERFKARASHAAQVQSRVKKLDKIERFEPPRRRQTVSFDFPPAPRSGDDVAVFKSVHKGYGSRAIYQGLDLIIRRKERWCVMGVNGAGKSTLLKLVAGAADPDSGTVTVGASVKMGYFSQHAMELLDGERTVYESLEDRFPQANQGSLRTLAGCFGFSGDDVEKKCRVLSGGEKARLVMAIMLYNPPNFLVLDEPTNHLDLDTKQMLIAALANYEGTMLFVSHDRHFLAALSNRVLELTPEGVHQYSGGYTEYVARTGHEAPGLRS	not soluble
MSLCELLGMSANVPTDIVFSFTGLMQRGGGTGPHRDGWGIAFYEGRGVRLFQDPLASVDSEVARLVQRFPIKSETVIGHIRQANVGKVGLSNTHPFIRELGGRYWTFAHNGQLADFQPKPGFYRPVGETDSEAAFCDLLNRVRRAFPEPVPVEVLLPVLISACDEYRKKGVFNALISDGDWLFTFCSSKLAYITRRAPFGPARLKDADLTVDFHAETTPDDVVTVIATEPLTDNENWTLQQSGEWVLWWGGEVLAKGEGGSHHHHHH	soluble
